{"source": "paper PMC7805551", "target": "chicken MHF complex (MHF1/MHF2 heterotetramer) (chicken) (UniProt E1BSW7)", "assay": "native gel or EMSA; 2 mg/ml FANCM–MHF or MHF mixed 1:1 with 10 mM Tris–HCl pH 8 or 10–60% MPD, 20°C for 60 min; 6% polyacrylamide TBE gel, 0.5x TBE, 4°C; bands cut out and analysed by SDS–PAGE; at 30% MPD a smeared band at the position of MHF", "data": [{"substance": "chicken FANCM (MHF interaction region, amino acids 660–804) (from UniProt A0A1D5PRR9 660-804) (domain or fragment)", "values": [{"measurement": "percent of MHF without FANCM", "result": 3, "unit": "%"}]}]}
